Source: patent publication US20260250318A1, “COMPOSITIONS AND METHODS FOR CROSSING THE BLOOD BRAIN BARRIER” (VOYAGER THERAPEUTICS, INC., priority 2022, published 2026)
“And” between values parts separate entries of the source, which are not always exact repeats. Equal values may be shown once.

Tests used:
[1] = target: T1, His-tagged ALPL (recombinant, soluble; SPR, BLI and ELISA of Examples 8 and 13) (UniProt P05186 18-502)
T1 sequence: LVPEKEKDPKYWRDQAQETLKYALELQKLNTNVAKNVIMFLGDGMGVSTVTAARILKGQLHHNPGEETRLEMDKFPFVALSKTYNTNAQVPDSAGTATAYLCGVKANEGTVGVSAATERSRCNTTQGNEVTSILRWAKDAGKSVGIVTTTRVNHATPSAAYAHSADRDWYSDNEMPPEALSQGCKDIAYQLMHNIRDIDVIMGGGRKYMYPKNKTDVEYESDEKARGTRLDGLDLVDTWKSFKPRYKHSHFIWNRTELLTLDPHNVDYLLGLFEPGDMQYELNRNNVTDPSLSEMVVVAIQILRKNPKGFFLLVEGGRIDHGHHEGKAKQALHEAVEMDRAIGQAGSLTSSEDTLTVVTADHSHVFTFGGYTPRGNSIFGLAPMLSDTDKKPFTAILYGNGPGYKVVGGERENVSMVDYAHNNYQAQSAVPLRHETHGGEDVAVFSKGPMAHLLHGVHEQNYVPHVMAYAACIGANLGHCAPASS

[2] = tested on: mouse cells derived from the midbrain area; experiment: scRNA-Seq and IHC of midbrain cells transduced by TTM-002; assay type: in vivo, SCID CB17 mice; conditions: for % GFP Cells/Cluster: AAV_TTM-002.GFP particles, GFP sorted midbrain cells; for % GFP Cells/Cluster / % Payload Cells/Cluster: 28 days; for % Payload Cells/Cluster: AAV_TTM-002.payload particles, midbrain scRNA-Seq
Procedure: AAV particles were generated with the TTM-002 capsid variant encapsulating a GFP transgene (AAV_TTM-002.GFP) or a payload driven by a heterologous CBA constitutive promoter (AAV_TTM-002.Payload).
Two tandem single cell RNA sequencing runs (scRNA-Seq) of mouse cells derived from the midbrain area were performed. In the first run, cells were pooled from two mice at day 28 post treatment with AAV_TTM-002.Payload particles. In the second run we treated with AAV_TTM-002.GFP particles, in the same manner but without xenografts. Orthotopic xenografts of MDA-MB-361-Luc #1 high passage cells grown as tumorspheres (in tumorsphere media; Sigma #C-28070) were injected (250,000 cells/2 μL/mouse) intracranially into 2-month old female SCID CB17 (Mutation: Icr-Prkdcscid/IcrIcoCrl) congenic immunodeficient mice (Charles River Laboratories). The injections were 2.5 mm (lateral),-1 mm (posterior) with respect to bregma, lowered-3 mm ventral and raised +0.5 mm dorsal to a final-2.5 mm ventral position. Two days later, dilutions of the AAV_TTM-002.Payload particles (run 1), or in the case without xenografts, dilutions of AAV_TTM-002.GFP particles (run 2) were prepared. IV injections of 100 μL (2.5e11 VG/animal) of the AAV_TTM-002.payload particles or AAV_TTM-002.GFP particles were administered through the tail veins of mice (n=5 mice per groups). At 7 days post-injection, mice from run 1 were imaged in an AmiHTX (Spectral Imager) for bioluminescence of the human tumor cells due to expression of luciferase in response to intraperitoneal luciferin injections.
At 28 days post-injection with the AAV_TTM-002.payload particles or AAV_TTM-002.GFP particles, two mice from each run were necropsied, brain samples were isolated, and the midbrain was dissected and isolated. The midbrain samples were then exposed to a cold protease inhibitor (Creative Biomart #NATE-0633) and were dissociated at 6 degrees centigrade. For the samples collected from the mice of run 1 (AAV_TTM-002.Payload particles), myelin depletion was performed (Miltenyi, #130-096-731), cells were filtered through a […] mesh to filter out neurons) and loaded on a 10X chromium G chip. scRNA-Seq was performed (10X Genomics) and samples were sequenced on a NextGen500 Sequencing machine (Illumina). For the samples collected from run 2 (AAV_TTM-002.GFP particles and no xenografts), the cells were not myelin depleted or filtered through […] mesh to include neurons. The cells isolated after run 2 were FACS sorted for GFP+/7AAD− (live GFP+ cells). The resultant cells were loaded on a 10× chromium G chip and the scRNA-Seq was run and processed (10× Genomics).
For run 1, the scRNA-Seq data was filtered to include cells with only greater than 1000 genes per cell and less than 5000, and less than 20 percent mitochondrial gene expression. For run 2, the scRNA-Seq data was filtered to include cells with only greater than 200 genes per cell and less than 5000, and less than 20 percent mitochondrial gene expression. The data were normalized, scaled, and integrated into one combined dataset. Clusters were generated with a resolution of 0.3 and each cluster identity was determined using a panel of cell type specific genes (e.g., as described in Brown et al., 2021. “Deep Parallel Characterization of AAV Tropism and AAV-Mediated Transcriptional Changes via Single-Cell RNA Sequencing”. Front. Immunol. 12:730825; the contents of which are hereby incorporated by reference in its entirety). The percentage of GFP sorted cells per cluster was calculated as was the percentage of payload expressing genes per cluster as parallel measures of TTM-002 transduction.

[3] = cluster Vascular smooth muscle cells (VSC)

B1: TTM-002 capsid variant (AAV particle comprising the TTM-002 AAV9 capsid variant) (other)
chain 1: MAADGYLPDWLEDNLSEGIREWWALKPGAPQPKANQQHQDNARGLVLPGYKYLGPGNGLDKGEPVNAADAAALEHDKAYDQQLKAGDNPYLKYNHADAEFQERLKEDTSFGGNLGRAVFQAKKRLLEPLGLVEEAAKTAPGKKRPVEQSPQEPDSSAGIGKSGAQPAKKRLNFGQTGDTESVPDPQPIGEPPAAPSGVGSLTMASGGGAPVADNNEGADGVGSSSGNWHCDSQWLGDRVITTSTRTWALPTYNNHLYKQISNSTSGGSSNDNAYFGYSTPWGYFDFNRFHCHFSPRDWQRLINNNWGFRPKRLNFKLFNIQVKEVTDNNGVKTIANNLTSTVQVFTDSDYQLPYVLGSAHEGCLPPFPADVFMIPQYGYLTLNDGSQAVGRSSFYCLEYFPSQMLRTGNNFQFSYEFENVPFHSSYAHSQSLDRLMNPLIDQYLYYLSKTINGHDSPHKSGQNQQTLKFSVAGPSNMAVQGRNYIPGPSYRQQRVSTTVTQNNNSEFAWPGASSWALNGRNSLMNPGPAMASHKEGEDRFFPLSGSLIFGKQGTGRDNVDADKVMITNEEEIKTTNPVATESYGQVATNHQSAQAQAQTGWVQNQGILPGMVWQDRDVYLQGPIWAKIPHTDGNFHPSPLMGGFGMKHPPPQILIKNTPVPADPPTAFNKDKLNSFITQYSTGQVSVEIEWELQKENSKRWNPEIQYTSNYYKSNNVEFAVNTEGVYSEPRPIGTRYLTRNL
chain 2: TAPGKKRPVEQSPQEPDSSAGIGKSGAQPAKKRLNFGQTGDTESVPDPQPIGEPPAAPSGVGSLTMASGGGAPVADNNEGADGVGSSSGNWHCDSQWLGDRVITTSTRTWALPTYNNHLYKQISNSTSGGSSNDNAYFGYSTPWGYFDFNRFHCHFSPRDWQRLINNNWGFRPKRLNFKLFNIQVKEVTDNNGVKTIANNLTSTVQVFTDSDYQLPYVLGSAHEGCLPPFPADVFMIPQYGYLTLNDGSQAVGRSSFYCLEYFPSQMLRTGNNFQFSYEFENVPFHSSYAHSQSLDRLMNPLIDQYLYYLSKTINGHDSPHKSGQNQQTLKFSVAGPSNMAVQGRNYIPGPSYRQQRVSTTVTQNNNSEFAWPGASSWALNGRNSLMNPGPAMASHKEGEDRFFPLSGSLIFGKQGTGRDNVDADKVMITNEEEIKTTNPVATESYGQVATNHQSAQAQAQTGWVQNQGILPGMVWQDRDVYLQGPIWAKIPHTDGNFHPSPLMGGFGMKHPPPQILIKNTPVPADPPTAFNKDKLNSFITQYSTGQVSVEIEWELQKENSKRWNPEIQYTSNYYKSNNVEFAVNTEGVYSEPRPIGTRYLTRNL
chain 3: MASGGGAPVADNNEGADGVGSSSGNWHCDSQWLGDRVITTSTRTWALPTYNNHLYKQISNSTSGGSSNDNAYFGYSTPWGYFDFNRFHCHFSPRDWQRLINNNWGFRPKRLNFKLFNIQVKEVTDNNGVKTIANNLTSTVQVFTDSDYQLPYVLGSAHEGCLPPFPADVFMIPQYGYLTLNDGSQAVGRSSFYCLEYFPSQMLRTGNNFQFSYEFENVPFHSSYAHSQSLDRLMNPLIDQYLYYLSKTINGHDSPHKSGQNQQTLKFSVAGPSNMAVQGRNYIPGPSYRQQRVSTTVTQNNNSEFAWPGASSWALNGRNSLMNPGPAMASHKEGEDRFFPLSGSLIFGKQGTGRDNVDADKVMITNEEEIKTTNPVATESYGQVATNHQSAQAQAQTGWVQNQGILPGMVWQDRDVYLQGPIWAKIPHTDGNFHPSPLMGGFGMKHPPPQILIKNTPVPADPPTAFNKDKLNSFITQYSTGQVSVEIEWELQKENSKRWNPEIQYTSNYYKSNNVEFAVNTEGVYSEPRPIGTRYLTRNL
Kd [1]: 32 nM and 26.8 nM and 47 nM and 52.3 nM | kon [1]: 39800 M⁻¹ s⁻¹ and 43600 M⁻¹ s⁻¹ and 39400 M⁻¹ s⁻¹ and 98000 M⁻¹ s⁻¹

B2: TTM-002: AAV9 capsid variant comprising HDSPHK (SEQ ID NO: 2) in loop IV (protein)
chain 1: B1 chain 1
chain 2: GHDSPHKSGQNQQT
IHC co-staining of GFP with cell markers ([2]; brain samples, AAV_TTM-002.GFP): GFP co-localized with some but not all Olig2+ cells | % GFP Cells/Cluster ([2]; cluster Astrocyte): 2.37% | % Payload Cells/Cluster ([2]; cluster Astrocyte): 4.50% | % GFP Cells/Cluster ([2]; cluster Committed Oligos-2): 0.00% | % Payload Cells/Cluster ([2]; cluster Committed Oligos-2): 0.00% | % GFP Cells/Cluster ([2]; cluster Committed Oligos): 0.00% | % Payload Cells/Cluster ([2]; cluster Committed Oligos): 1.90% | % GFP Cells/Cluster ([2]; cluster Endothelial-1): 3.45% | % Payload Cells/Cluster ([2]; cluster Endothelial-1): 3.09% | % GFP Cells/Cluster ([2]; cluster Endothelial-2): 6.58% | % Payload Cells/Cluster ([2]; cluster Endothelial-2): 6.58% | % GFP Cells/Cluster ([2]; cluster Macrophages): 0.00% | % Payload Cells/Cluster ([2]; cluster Macrophages): 0.00% | % GFP Cells/Cluster ([2]; cluster Mature Oligos): 0.00% | % Payload Cells/Cluster ([2]; cluster Mature Oligos): 3.85% | % GFP Cells/Cluster ([2]; cluster Microglia): 0.00% | % Payload Cells/Cluster ([2]; cluster Microglia): 0.40% | % GFP Cells/Cluster ([2]; cluster Oligodendrocytes): 0.00% | % Payload Cells/Cluster ([2]; cluster Oligodendrocytes): 0.00% | % GFP Cells/Cluster ([2]; cluster Pericytes): 0.77% | % Payload Cells/Cluster ([2]; cluster Pericytes): 4.23% | % GFP Cells/Cluster ([2]; cluster Vascular and leptomeningeal Cells (VLM)): 2.38% | % Payload Cells/Cluster ([2]; cluster Vascular and leptomeningeal cells (VLM)): 0.00% | % GFP Cells/Cluster [2, 3]: 1.03% | % Payload Cells/Cluster [2, 3]: 1.72% | proportion of payload positive cells per cell type ([2]; scRNA-Seq, AAV_TTM-002.Payload, day 28): endothelial cells had the highest proportion of payload positive cells | proportion of GFP positive cells per cell type ([2]; scRNA-Seq, GFP+ sorted cells, AAV_TTM-002.GFP, day 28): endothelial cells had the highest proportion of GFP positive cells
